From patent US20240209106A1 (BEIGENE SWITZERLAND, published 2024)

T1: recombinant CEA protein (human, UniProt P06731 35-685, limits assumed)
T1 construct: also called recombinant soluble CEA; in-house made recombinant CEA proteins
T1 sequence (looked up): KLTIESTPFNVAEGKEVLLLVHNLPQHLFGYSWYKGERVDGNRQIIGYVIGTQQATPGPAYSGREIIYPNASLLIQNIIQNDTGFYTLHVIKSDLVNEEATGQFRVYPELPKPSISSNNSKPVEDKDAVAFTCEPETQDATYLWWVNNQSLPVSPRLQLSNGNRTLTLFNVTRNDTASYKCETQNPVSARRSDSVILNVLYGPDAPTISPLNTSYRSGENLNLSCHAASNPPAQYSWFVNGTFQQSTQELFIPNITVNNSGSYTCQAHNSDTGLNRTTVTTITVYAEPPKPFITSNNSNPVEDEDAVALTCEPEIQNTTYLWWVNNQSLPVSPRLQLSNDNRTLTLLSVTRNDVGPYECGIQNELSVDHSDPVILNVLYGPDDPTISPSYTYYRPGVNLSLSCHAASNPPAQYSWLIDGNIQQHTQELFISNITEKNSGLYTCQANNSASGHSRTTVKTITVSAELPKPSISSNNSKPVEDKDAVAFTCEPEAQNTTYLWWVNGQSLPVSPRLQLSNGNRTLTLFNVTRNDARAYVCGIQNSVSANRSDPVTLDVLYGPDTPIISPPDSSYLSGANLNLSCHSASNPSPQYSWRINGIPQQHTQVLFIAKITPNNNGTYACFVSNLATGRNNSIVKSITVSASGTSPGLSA

T2: human CEA on cells (human, UniProt P06731 35-685)
T2 construct: whole, on cells; also called CT26/CEA; MKN45
T2 sequence (looked up): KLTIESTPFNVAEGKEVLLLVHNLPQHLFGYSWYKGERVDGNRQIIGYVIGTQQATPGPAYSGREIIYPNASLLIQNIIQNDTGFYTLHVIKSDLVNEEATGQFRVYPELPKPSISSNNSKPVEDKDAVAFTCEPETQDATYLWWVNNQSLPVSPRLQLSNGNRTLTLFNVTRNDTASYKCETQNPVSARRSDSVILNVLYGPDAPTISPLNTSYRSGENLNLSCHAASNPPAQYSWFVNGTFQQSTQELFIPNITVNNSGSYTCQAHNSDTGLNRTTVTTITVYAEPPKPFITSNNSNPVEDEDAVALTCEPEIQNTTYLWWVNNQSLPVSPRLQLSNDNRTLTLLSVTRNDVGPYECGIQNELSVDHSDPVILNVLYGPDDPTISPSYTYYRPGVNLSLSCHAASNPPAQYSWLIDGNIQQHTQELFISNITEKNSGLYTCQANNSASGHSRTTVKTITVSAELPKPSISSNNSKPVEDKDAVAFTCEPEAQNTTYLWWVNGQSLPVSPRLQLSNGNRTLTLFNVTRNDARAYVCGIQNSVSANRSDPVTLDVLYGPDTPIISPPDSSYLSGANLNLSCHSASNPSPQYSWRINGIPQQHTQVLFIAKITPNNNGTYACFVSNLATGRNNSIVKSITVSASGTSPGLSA


Columns and labels:
[1] = target: T3, human CD137 ECD (AA 24-183) (human, UniProt Q07011 24-183); assay: method and huCD137 construct not stated
T3 construct: also called huCD137

[2] = target: T1, recombinant CEA protein; assay: method and CEA construct not stated (TAA KD)
[3] = target: T2, human CEA on cells; assay: flow cytometry on MKN45 cells [panel A]
[4] = target: human CD137 ECD-mIgG2a (human); assay: SPR, multispecific antibody captured on anti-human IgG Fc chip, human CD137 ECD-mIgG2a flowed over
Protocol: Briefly, anti-human IgG (Fc) antibody was immobilized on an activated CM5 biosensor chip (Cat.: BR100839, GE Life Sciences). Anti-huCD137 monoclonal antibodies or multispecific antibodies were flown through the chip surface and captured by anti-human IgG (Fc) antibody. […] The equilibrium dissociation constant (KD)) was calculated as the ratio koff/kₒₙ.

[5] = target: human CD137 ECD-mIgG2a (human); assay: SPR, human CD137 ECD-mIgG2a
[6] = target: T4, full-length human CD137 (huCD137) (human, UniProt Q07011 24-255); assay: flow cytometry on Hut78/huCD137 cells
T4 construct: On transduced Hut78 cells (Hut78/huCD137), transiently on HEK293 cells, or natively on PBMC/T cells; also called TNFRSF9; 4-1BB

[7] = target: T2, human CEA on cells; assay: flow cytometry on CT26/CEA cells [panel A]
[8] = target: T4, full-length human CD137 (huCD137); assay: flow cytometry on Hut78/huCD137 cells [panel B]

Chain of human CD137 ECD-mIgG2a (human) (chain, as listed by the source limits assumed): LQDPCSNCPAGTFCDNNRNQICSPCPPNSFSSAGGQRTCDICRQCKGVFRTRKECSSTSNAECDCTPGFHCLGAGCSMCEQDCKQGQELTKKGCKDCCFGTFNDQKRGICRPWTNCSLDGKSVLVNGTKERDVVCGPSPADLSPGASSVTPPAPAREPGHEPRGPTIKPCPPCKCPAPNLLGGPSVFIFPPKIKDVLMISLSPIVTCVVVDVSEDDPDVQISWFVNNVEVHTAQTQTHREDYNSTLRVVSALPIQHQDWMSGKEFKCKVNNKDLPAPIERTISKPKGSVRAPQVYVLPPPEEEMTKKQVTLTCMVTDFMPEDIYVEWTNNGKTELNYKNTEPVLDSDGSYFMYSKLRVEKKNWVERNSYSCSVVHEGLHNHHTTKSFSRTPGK
T4 sequence (Q07011 24-255 limits assumed): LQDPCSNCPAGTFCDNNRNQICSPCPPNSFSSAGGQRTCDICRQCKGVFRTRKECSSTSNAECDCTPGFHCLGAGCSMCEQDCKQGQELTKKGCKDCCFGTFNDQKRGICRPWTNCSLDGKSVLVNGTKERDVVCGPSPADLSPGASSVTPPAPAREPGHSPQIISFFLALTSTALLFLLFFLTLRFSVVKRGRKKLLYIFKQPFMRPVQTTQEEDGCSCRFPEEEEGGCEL

Binder | Kd [1] [nM] | Kd [2] [nM] | EC50 (read off the curve) [3] [µg/mL] | Kd [4] [nM] | Kd [5] [nM] | EC50 [6] [µg/mL] | EC50 (read off the curve) [7] [µg/mL] | binding result [8]
BE-146 (CEA × CD137) (bispecific antibody, human IgG1, kappa, Module ratio 2:2) heavy: QVQLVQSGAEVKKPGASVKVSCKASGYIFTSYYLHWVRQAPGQGLEWIGYINPQTGKTSYAQKFQGRVTMTRDTSTSTVYMELSSLRSEDTAVYYCAREYGNYNYPLDYWGQGTLVTVSSASTKGPSVFPLAPSSKSTSGGTAALGCLVKDYFPEPVTVSWNSGALTSGVHTFPAVLQSSGLYSLSSVVTVPSSSLGTQTYICNVNHKPSNTKVDKKVEPKSCDKTHTCPPCPAPPAAGPSVFLFPPKPKDTLMISRTPEVTCVVVDVSHEDPEVKFNWYVDGVEVHNAKTKPREEQYNSTYRVVSVLTVLHQDWLNGKEYKCKVSNKALAAPIEKTISKAKGQPREPQVYTLPPSREEMTKNQVSLTCLVKGFYPSDIAVEWESNGQPENNYKTTPPVLDSDGSFFLYSKLTVDKSRWQQGNVFSCSVMHEALHNHYTQKSLSLSPGKGGGGSEVQLLESGGGLVQPGGSLRLSCAASGFTVSAEDVGWVRQAPGKGLEWVSAILDKGGSTYYAESVKGRFTISRDNAKNTLYLQMSSLRAEDTAVYYCARIVYHAGGGVTFDTRGQGTQVTVSS light: DIQMTQSPSSLSASVGDRVTITCRASENQYGYLAWYQQKPGKVPKLLIYNYKNLVEGVPSRFSGSGSGTDFTLTISSLQPEDVATYYCQHHLGTPYTFGQGTKVEIKRTVAAPSVFIFPPSDEQLKSGTASVVCLLNNFYPREAKVQWKVDNALQSGNSQESVTEQDSKDSTYSLSSTLTLSKADYEKHKVYACEVTHQGLSSPVTKSFNRGEC | 167 | 6.5 | ~0.5 |  |  |  |  | 
Format A-BGA-7556 (bispecific antibody, human IgG1, kappa, Light chain by the description of Format A; also called BGA-7556 in Format A-CD137 × CEA) heavy: QVQLVQSGAEVKKPGASVKVSCKASGYIFTSYYLHWVRQAPGQGLEWIGYINPQTGKTSYAQKFQGRVTMTRDTSTSTVYMELSSLRSEDTAVYYCAREYGNYNYPLDYWGQGTLVTVSSASTKGPSVFPLAPSSKSTSGGTAALGCLVKDYFPEPVTVSWNSGALTSGVHTFPAVLQSSGLYSLSSVVTVPSSSLGTQTYICNVNHKPSNTKVDKKVEPKSCDKTHTCPPCPAPPAAGPSVFLFPPKPKDTLMISRTPEVTCVVVDVSHEDPEVKFNWYVDGVEVHNAKTKPREEQYNSTYRVVSVLTVLHQDWLNGKEYKCKVSNKALAAPIEKTISKAKGQPREPQVYTLPPSREEMTKNQVSLTCLVKGFYPSDIAVEWESNGQPENNYKTTPPVLDSDGSFFLYSKLTVDKSRWQQGNVFSCSVMHEALHNHYTQKSLSLSPGKGGGGSEVQLLESGGGLVQPGGSLRLSCAASGFTLSAEDVGWVRQAPGKGLEWVSAILDFGGSTYYAESVKGRFTISRDNAKNTLYLQMSSLRAEDTAVYYCARVVYHAGGGVTFDYRGQGTQVTVSS light: DIQMTQSPSSLSASVGDRVTITCRASENQYGYLAWYQQKPGKVPKLLIYNYKNLVEGVPSRFSGSGSGTDFTLTISSLQPEDVATYYCQHHLGTPYTFGQGTKVEIKRTVAAPSVFIFPPSDEQLKSGTASVVCLLNNFYPREAKVQWKVDNALQSGNSQESVTEQDSKDSTYSLSSTLTLSKADYEKHKVYACEVTHQGLSSPVTKSFNRGEC |  |  |  | 649 | 669 | 3.23 |  | 
anti-CEA Ab (IgG1) (antibody, V domains shown, also called anti-CEA antibody) VH: QVQLVQSGAEVKKPGASVKVSCKASGYIFTSYYLHWVRQAPGQGLEWIGYINPQTGKTSYAQKFQGRVTMTRDTSTSTVYMELSSLRSEDTAVYYCAREYGNYNYPLDYWGQGTLVTVSS VL: DIQMTQSPSSLSASVGDRVTITCRASENQYGYLAWYQQKPGKVPKLLIYNYKNLVEGVPSRFSGSGSGTDFTLTISSLQPEDVATYYCQHHLGTPYTFGQGTKVEIKR |  |  | ~0.5 |  |  |  | ~1 | no binding (tested: just above 10^2 ug/ml)
